From US20190284258

System: T1, Haemadipsa sylvestris antithrombotic peptide Sylvestin
T1 sequence: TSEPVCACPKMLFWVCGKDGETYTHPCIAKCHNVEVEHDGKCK

| Substance | enzyme kinetics, chromogenic substrate, OD 405 nm | enzyme kinetics, chromogenic substrate, OD 405 nm; sample 10 µM |
| --- | --- | --- |
| kallikrein | it can inhibit FXIIa and kallikrein |  |
| thrombin |  | had no inhibitory effect on thrombin, plasminogen FXa or the like |
| plasminogen |  | had no inhibitory effect on thrombin, plasminogen FXa or the like |
| FXa |  | had no inhibitory effect on thrombin, plasminogen FXa or the like |
| FXIIa | it can inhibit FXIIa and kallikrein |  |
